Measured values published in publication PMC10912509.

Molecular target: ITPKB (UniProt P27987)
Experiment: co-immunoprecipitation, immunoblot
Settings: reference: wild-type Trim25; sites S100

## Trim25 (from UniProt Q14258) Trim25 S100A
  binding against the reference: weaker
